Measurements taken from US20240400717A1, “Antibody Binding to CHI3L1 for Treating Cancer” (National Cheng Kung University, priority 2021, published 2024).

B1: #R4-53: fully human anti-CHI3L1 mAb, Table 1 No. 33; heavy chain SEQ ID NO: 25, light chain SEQ ID NO: 26 (antibody, listed as Homo sapiens)
VH: QVQLVQSGAEVKKPGASVKVSCKASGYTFTSYYMHWVRQAPGQGLEWMGIINPSGGSTSYAQKFQGRVTMTRDTSTSTVYMELSSLRSEDTAVYYCASDIGDYGDYWGQGTTVTVSS
light: SYVLTQPPSVSVALGQTARITCGGNNIESKIVSWYQQKPGQAPVLVIFYDTDRPSGISERFSGSNSGNTATLTISRVEAGDEADYYCQVWDSNSDHVIFGGGTKLTVLGQPKAAPSVTLFPPSSEELQANKATLVCLISDFYPGAVTVAWKADSSPVKAGVETTTPSKQSNNKYAASSYLSLTPEQWKSHRSYSCQVTHEGSTVEKTVAPTECS
B2: #R4-62: fully human anti-CHI3L1 mAb, Table 1 No. 37; heavy chain SEQ ID NO: 41, light chain SEQ ID NO: 42 (antibody, listed as Homo sapiens)
VH: EVQLVESGGGLVQPGGSLRLSCAASGLTFPNFAMTWVRQTPGKGLQWVSTISGRGDEPFYADSVKGRFTISRDNSKNMVYLHMNSLRAEDTAIYYCAKGGHFSSWDYWGQGTLVTVSS
light: NFMLTQPHSVSESPGKTVTISCTRSSGSIASNYVQWYQQRPDSAPTTVIYEDIERPSGVPDRFSGAIDSSANSASLTISGLQTEDEADYYCQSYDSSSYVFGTGTKVTVLGQPKANPTVTLFPPSSEELQANKATLVCLISDFYPGAVTVAWKADGSPVKAGVETTKPSKQSNNKYAASSYLSLTPEQWKSHRSYSCQVTHEGSTVEKTVAPTECS
B3: #R4-63: fully human anti-CHI3L1 mAb, Table 1 No. 38; heavy chain SEQ ID NO: 49, light chain SEQ ID NO: 50 (antibody, listed as Homo sapiens)
VH: EVQLVQSGAEVKKPGATVKISCKVSGYTFTDYYMHWVQQAPGKGLEWMGLVDPEDGETIYAEKFQGRVTITADTSTDTAYMELSSLRSEDTAVYYCATIGRPPDYWGQGTTVTVSS
light: QSVLTQPPSVSAAPGQKVTISCSGSSSNIGNNYVSWYQQLPGTAPKLLIYDNNKRPSGIPDRFSGSKSGTSATLGITGLQTGDEADYYCGTWDSSLSVWVFGGGTKLTVLGQPKAAPSVTLFPPSSEELQANKATLVCLISDFYPGAVTVAWKADSSPVKAGVETTTPSKQSNNKYAASSYLSLTPEQWKSHKSYSCQVTHEGSTVEKTVAPTECS
B4: #293R3-5: fully human anti-CHI3L1 mAb, Table 1 No. 5; heavy chain SEQ ID NO: 81, light chain SEQ ID NO: 82 (antibody, listed as Homo sapiens)
VH: EVQLVQSGAGVKKPGATVKISCKVSGYTFTDYYMHWVQQAPGKGLEWMGLVDPEDGETIYAEKFQGRVTITADTSTDTAYMELSSLRSEDTAVYYCATASPREEMPYYFDYWGQGTLVTVSS
light: SYELTQPPSVSVSPGQTASITCSGDILADQYASWYQQKPGQSPVLVIYHDTKRPSGVPERFSGSTSGNTATLTISGTQAMDEAAYYCQAWDINTAWVFGGGTQLTVLGQPKAAPSVTLFPPSSEELQANKATLVCLISDFYPGAVTVAWKADSSPVKAGVETTTPSKQSNNKYAASSYLSLTPEQWKSHRSYSCQVTHEGSTVEKTVAPTECS
B5: #R4-2: fully human anti-CHI3L1 mAb, Table 1 No. 7; heavy chain SEQ ID NO: 1, light chain SEQ ID NO: 2 (antibody, listed as Homo sapiens)
heavy: QVQLVQSGAEVKKPGSSVKVSCKASGGTFSSYAISWVRQAPGQGLEWMGGIIPIFGTANYAQKFQGRVTITADESTSTAYMELSSLRSEDTAVYYCARGDIEYYDILTGYYYYFDYWGQGTLVTVSS
light: SYVLTQPPSVSVAPGKAARVTCGGNDIGSKSVQWYQQKPGQAPVLVISYDNDRPSGIPERFSGSNSGNTATLTISRVEAGDEADYYCQVWDSTSDHYVFGTGTKVTVQGQPKANPTVTLFPPSSEELQANKATLVCLISDFYPGAVTVAWKADSSPVKAGVETTTPSKQSNNKYAASSYLSLTPEQWKSHRSYSCQVTHEGSTVEKTVAPTECS

biological target: T1, CHI3L1 binding to IL-13Rα2 on A549 cell line (Homo sapiens, UniProt P36222); assay: Functional screen: block of CHI3L1 binding to IL-13Rα2 on A549 cell line; assay type: cell-based; settings: A549 cells, compared with CHI3L1 only
T1 construct: host or cells: A549 cells carry the receptor
From the text: CHI3L1 is known to associate with different receptors, such as IL-13Rα2 (He et al. 2013), CRTH2 (Zhou et al. 2015), TMEM219 (Lee et al. 2016), and galectin-3 (Zhou et al. 2015). […] Therefore, purified antibody leads were functionally screened for their ability to block CHI3L1 binding to IL-13Rα2 on A549 cell line (FIG. 3A). […] The sequences and defied CDR regions among those monoclonal antibodies are listed and summarized in the sequences list (SEQ ID NOs: 1 to 88) and Table 2, respectively. Anti-CHI3L1 clone R4-2 heavy chain (SEQ ID NO: 1), anti-CHI3L1 clone R4-2 light chain (SEQ ID NO: 2), anti-CHI3L1 clone R4-4 heavy chain (SEQ ID NO: 9), anti-CHI3L1 clone R4-4 light chain (SEQ ID NO: 10), anti-CHI3L1 clone R4-39 heavy chain (SEQ ID NO: 17), anti-CHI3L1 clone R4-39 light chain (SEQ ID NO: 18), anti-CHI3L1 clone R4-53 heavy chain (SEQ ID NO: 25), anti-CHI3L1 clone R4-53 light chain (SEQ ID NO: 26), anti-CHI3L1 clone R4-54 heavy chain (SEQ ID NO: 33), anti-CHI3L1 clone R4-54 light chain (SEQ ID NO: 34), anti-CHI3L1 clone R4-62 heavy chain (SEQ ID NO: 41), anti-CHI3L1 clone R4-62 light chain (SEQ ID NO: 42), anti-CHI3L1 clone R4-63 heavy chain (SEQ ID NO: 49), anti-CHI3L1 clone R4-63 light chain (SEQ ID NO: 50), anti-CHI3L1 clone R4-93 heavy chain (SEQ ID NO: 57), anti-CHI3L1 clone R4-93 light chain (SEQ ID NO: 58), anti-CHI3L1 clone 293R3-2 heavy chain (SEQ ID NO: 65), anti-CHI3L1 clone 293R3-2 light chain (SEQ ID NO: 66), anti-CHI3L1 clone 293R3-4 heavy chain (SEQ ID NO: 73), anti-CHI3L1 clone 293R3-4 light chain (SEQ ID NO: 74), anti-CHI3L1 clone 293R3-5 heavy chain (SEQ ID NO: 81), and anti-CHI3L1 clone 293R3-5 light chain (SEQ ID NO: 82) are shown in sequence listing.

T1 sequence (P36222 22-383): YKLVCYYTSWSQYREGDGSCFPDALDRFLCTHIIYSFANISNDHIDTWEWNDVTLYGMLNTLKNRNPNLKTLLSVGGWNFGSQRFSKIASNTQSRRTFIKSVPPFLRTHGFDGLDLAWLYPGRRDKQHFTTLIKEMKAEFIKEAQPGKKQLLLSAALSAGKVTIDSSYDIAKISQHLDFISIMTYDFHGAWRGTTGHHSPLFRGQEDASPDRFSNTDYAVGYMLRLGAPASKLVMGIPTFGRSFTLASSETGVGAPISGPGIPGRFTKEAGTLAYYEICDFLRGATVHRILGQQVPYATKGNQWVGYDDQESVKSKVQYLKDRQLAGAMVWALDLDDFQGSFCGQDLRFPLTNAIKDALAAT

Row | CHI3L1 neutralizing activity | Molecule
1 | best neutralizing activity | B1
2 | best neutralizing activity | B2
3 | best neutralizing activity | B3
4 | best neutralizing activity | B4
5 | best neutralizing activity | B5
